A short description of the series: protein stability index of a GFP-peptide fusion (yeast GPS) (PSI 1-4); higher = more stable; sorted into four equal gates, so the index is relative within each strain. In outline:
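Tiled 17-residue peptides from yeast proteins were fused downstream of GFP on a plasmid that also expresses Cherry, and the pooled library was carried in yeast. Mid-log cultures grown in leucine-free medium were sorted into four equal gates by GFP/Cherry fluorescence ratio. Plasmids from each gate were PCR-amplified and Illumina-sequenced, and reads were assigned to strains by barcodes. Each peptide's protein stability index is the sum, over gates, of the gate's read frequency multiplied by its gate number.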

± gives the uncertainty stated by the source.

For VDPRIINSENDYSRKQL [NUT1], the protein stability index came to 3.06 ± 0.072 (doa10∆), 3.38 ± 0.072 (pdr5∆), 2.78 ± 0.082 (san1∆) and 3.06 ± 0.056 (ubr1∆).
The matching figures for DCENFFNYVQECPAIPI [YJL039C/NUP192]: 2.49 ± 0.075, 2.93 ± 0.064, 3.23 ± 0.069 and 2.99 ± 0.05.
In the same order, the values of DTAPKPNIVEIDLDNDE [DLS1] are 3.27 ± 0.082, 3.4 ± 0.058, 3.03 ± 0.079 and 3.27 ± 0.091.
As to NVRALYMRLWEINETEF [RMP1], the protein stability index (doa10∆) was 3 ± 0.24.
As for QTLGLESFTEELSNELS [MED1], the protein stability index was 3.29 ± 0.064 (doa10∆), 3.1 ± 0.051 (pdr5∆), 3.06 ± 0.05 (san1∆) and 3 ± 0.037 (ubr1∆).
As to SVMMQDSPASNEDDLTV [RPO31], the protein stability index reads like this: (doa10∆) 3.02 ± 0.097; (pdr5∆) 3.08 ± 0.083; (san1∆) 2.78 ± 0.076; (ubr1∆) 3.31 ± 0.12.
The sequence ARWPAKSVKFVQGLLQN [RPL17A] yielded a protein stability index (doa10∆) of 2.35 ± 0.097, a protein stability index (pdr5∆) of 2.17 ± 0.083, a protein stability index (san1∆) of 1.89 ± 0.088 and a protein stability index (ubr1∆) of 2.13 ± 0.073.
The matching figures for GNIQISEYNFLEGSVSL [DIS3]: 2.74 ± 0.097, 3.08 ± 0.091, 3.05 ± 0.09 and 2.89 ± 0.072.
The matching figures for YTYHSTNKDNKAELIKP [ARP9]: 2.74 ± 0.065, 2.69 ± 0.053, 3.06 ± 0.044 and 2.98 ± 0.063.
IPGMSNMMNQVGEEETS [SRP54] showed a protein stability index (san1∆) of 2.14 ± 0.29.
As to FSQFWYWFPLAHFLSLS [RPN2], the protein stability index by setting is: (doa10∆) 1.66 ± 0.044; (pdr5∆) 1.32 ± 0.045; (san1∆) 1.21 ± 0.11; (ubr1∆) 1.19 ± 0.038.
In the same order, the values of STYRLEDVLSSFYRVEK [SSN2] are 2.09 ± 0.074, 2.34 ± 0.073, 1.87 ± 0.1 and 2.48 ± 0.094.
FRVNNASINTSATVKTS [ECM29] registered a protein stability index (san1∆) of 1.95 ± 0.17.
In the case of IKIEDFVDDMLRDYRFE [SNF5], the protein stability index (doa10∆) came to 3 ± 0.068, the protein stability index (pdr5∆) is 3.16 ± 0.073, the protein stability index (san1∆) turned out to be 3.1 ± 0.067 and the protein stability index (ubr1∆) is 2.97 ± 0.078.
In the same order, the values of CELLKLTNEDPPGLMYL [SSN2] are 2.85 ± 0.18, 3.06 ± 0.19, 3.26 ± 0.12 and 3.36 ± 0.11.
LRNWEELNIIPRDLLRV [PRP28]: the protein stability index was found to be 1.09 ± 0.068 (doa10∆), 1.35 ± 0.061 (pdr5∆), 1.39 ± 0.21 (san1∆) and 1.07 ± 0.048 (ubr1∆).
Consider LSPSGHKTFLVANVKDL [RPL32], for which the protein stability index runs as follows: (pdr5∆) 3.33 ± 0.26; (san1∆) 2.84 ± 0.095; (ubr1∆) 2.84 ± 0.17.
Regarding SGGNNTATIINNESSDD [PCI8], the protein stability index is 2.63 ± 0.091 (doa10∆), 2.65 ± 0.087 (pdr5∆), 2.69 ± 0.092 (san1∆) and 3.17 ± 0.055 (ubr1∆).
As to RSPEEIRRTFNIVNDFT [SKP1], the protein stability index (doa10∆) was found to be 1.36 ± 0.058, the protein stability index (pdr5∆) was 2.06 ± 0.094, the protein stability index (san1∆) was found to be 1.53 ± 0.13 and the protein stability index (ubr1∆) turned out to be 2.12 ± 0.04.
Take RLTMGNVFTPEISSQIE [RRI2]: the protein stability index was found to be 2.7 ± 0.11 (doa10∆), 3.06 ± 0.079 (pdr5∆), 2.95 ± 0.1 (san1∆) and 2.92 ± 0.09 (ubr1∆).
The matching figures for ERIVVSYEYYNIKHKHT [SMC2]: 1.63 ± 0.047, 1.86 ± 0.064, 1.74 ± 0.11 and 1.87 ± 0.049.
The matching figures for VGDIVDIKANGSIQKGM [RPL21A]: 2.35 ± 0.072, 1.9 ± 0.065, 1.62 ± 0.089 and 2.19 ± 0.047.
The matching figures for GAAPYAAKLKQTENDLK [RPT1]: 2.06 ± 0.14, 2.35 ± 0.17, 2.31 ± 0.24 and 2.93 ± 0.19.
Take QVYDLLKRFPKMSVTCN [BRR2]: where the note is “pdr5∆”, the protein stability index is 1.09 ± 0.13.
In turn, GSIPSLTTQFVTDKYTA [YDL088C/ASM4] yielded a protein stability index (doa10∆) of 2.54 ± 0.08, a protein stability index (pdr5∆) of 2.54 ± 0.066, a protein stability index (san1∆) of 2.46 ± 0.087 and a protein stability index (ubr1∆) of 2.58 ± 0.079.
ITLLTRQRELLIAHQRS [GRR1]: the protein stability index by setting is: (doa10∆) 2.18 ± 0.039; (pdr5∆) 2.14 ± 0.038; (san1∆) 2.01 ± 0.045; (ubr1∆) 1.89 ± 0.029.
